This series in a line: amyloid nucleation score (Sup35N fusion, yeast selection) (log enrichment); library NNK3; higher = more nucleation; inactive = no reads after selection. The procedure, abridged: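 The nucleation score, computed with DiMSum, is the log enrichment of output over input reads, centred on the mode score of non-aggregating sequences. Sequences with under 100 input reads were dropped. Reads were generated by Illumina sequencing of plasmid inserts from psi-negative yeast with Sup35N fused to peptides of 20 random codons, induced with 100 μM copper sulfate for 24 hours and grown 7 days at 30°C on medium lacking adenine and uracil.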

± gives the uncertainty stated by the source.

With MFFQLVCYFNLSTVMTSYFE, the amyloid nucleation score stood at 0.593 ± 0.14.

As for SVRYVETYSHRTNTVDAAFV, the amyloid nucleation score entry is “inactive”.

YCSVFRES gave an amyloid nucleation score of 0.014 ± 0.63.

Substance YFYLSICDVSMVGSEFIYSR registered an amyloid nucleation score of 0.373 ± 0.2.

With YTSLCASVNGGLTIS, the amyloid nucleation score is -0.464 ± 0.8.

RFHVLINCFSAAGRGNPGSR yielded an amyloid nucleation score of 1.69 ± 0.068.

Take IDLVVSQVWQSTGAVVALWH: the amyloid nucleation score was -0.301 ± 0.83.

Turning to NRTCNDLMTFYSWGSSR, the amyloid nucleation score entry was “inactive”.

Turning to SMFSLWNS, the amyloid nucleation score result is “inactive”.

As for RVSSGSIVTRQHDLN, the amyloid nucleation score entry was “inactive”.

On to YRNLWNIHTVISIASL, for which the amyloid nucleation score result is “inactive”.

With TRSWCGDMYSHC, the amyloid nucleation score result was “inactive”.

Turning to NLENVLFRDRYQSSTCKLCK, the amyloid nucleation score entry was “inactive”.

As to ILSCPSS, the amyloid nucleation score entry was “inactive”.

Turning to MPIRCSTSLHWTTTMWMTVW, the amyloid nucleation score entry was “inactive”.

As for ALNIPVTRGTTPAWFLILLD, the amyloid nucleation score result was “inactive”.

Substance IINFSYANAVVIVWLNISMG had an amyloid nucleation score of 1.08 ± 0.16.

YRDRFAKSSYKSPKMYQYGS: the amyloid nucleation score entry is “inactive”.

On to TMYIAHGELGFIRNHLDISR, for which the amyloid nucleation score amounted to 1.04 ± 0.11.

For YLVYNYFMRDHWGLSVYLSR, the amyloid nucleation score turned out to be 0.641 ± 0.18.

Turning to YISSFRGDIVIY, the amyloid nucleation score result is “inactive”.

As for LRNTFKCVTIRALGSKGGRA, the amyloid nucleation score entry was “inactive”.

Take CDFIDVS: the amyloid nucleation score entry is “inactive”.

LSYYVS: the amyloid nucleation score result was “inactive”.

As for RSFKWNSECILWVSMLFSM, the amyloid nucleation score entry is “inactive”.

Consider REAYDLFSCIDYVLNFMFNY, for which the amyloid nucleation score entry is “inactive”.

As for SLLWSLSTYNVRIIHMM, the amyloid nucleation score entry was “inactive”.

Take WVPAGCKSVMVGGAG: the amyloid nucleation score entry is “inactive”.

For AGAGLNKLSVLTVTTLLMIL, the amyloid nucleation score result was “inactive”.

As for MYPHAQIEYYAVAHSLAIV, the amyloid nucleation score result was “inactive”.

Take SISSEALVFYFRIAGTVIKR: the amyloid nucleation score entry was “inactive”.

For GHLFVNTRYFGNFLDSSQVR, the amyloid nucleation score entry is “inactive”.

As to PKLSRSYVLSMMVTWRNSKV, the amyloid nucleation score entry was “inactive”.

For the substance STLILNRLYCFNLISLASLS, the amyloid nucleation score was 0.56 ± 0.2.

Take NAFGYSDVTVLVNSSLFESY: the amyloid nucleation score result is “inactive”.

Regarding LGSLVLLRFWY, the amyloid nucleation score is -0.181 ± 1.4.

Turning to LAWIVCDCIGQCCTFIVRVW, the amyloid nucleation score result is “inactive”.

On to ISFCYALCCNKMKRLLARCK, for which the amyloid nucleation score entry was “inactive”.

In the case of ECPAALLKKIVPYKKLHGRM, the amyloid nucleation score entry was “inactive”.

On to SWSRYYCLYCG, for which the amyloid nucleation score came out at 2.97 ± 0.068.

RFNAFSPSPRWPRHFKTMYY: the amyloid nucleation score result was “inactive”.

With RRLHSIAFVHRCLIIICCMG, the amyloid nucleation score result is “inactive”.

With NLMGQTSGCQCVNTACLKPC, the amyloid nucleation score result is “inactive”.

On to NRAGGICDKIRAQGYSYHSM, for which the amyloid nucleation score is 0.475 ± 0.72.

As for IIRSGGNGLCSTKYLSSHFL, the amyloid nucleation score entry was “inactive”.

HEIPETQFCSIWFDSVCWCL: the amyloid nucleation score entry was “inactive”.

In the case of AYWCG, the amyloid nucleation score entry was “inactive”.

In the case of VNDWWVSGW, the amyloid nucleation score entry is “inactive”.

For LGAAASSGRPMLTKYHLFWA, the amyloid nucleation score result is “inactive”.

Consider INTEGLVVIVGGRLYVILRV, for which the amyloid nucleation score result is “inactive”.

In the case of LVNIDLFNDYRAVCGLLTRD, the amyloid nucleation score entry was “inactive”.

In the case of SSFEFVE, the amyloid nucleation score came out at 0.698 ± 0.22.

Regarding GYCGQVCWFNAKSWMKRMTF, the amyloid nucleation score result is “inactive”.

For WMYHMHENYN, the amyloid nucleation score came out at 1.18 ± 0.1.

IFNRQFQKSIMRSWLNYESK had an amyloid nucleation score of 0.864 ± 0.13.

In the case of GVVSCHSFSRRRKALRGYSS, the amyloid nucleation score entry was “inactive”.

As to SVSARSRRLWGSMRIAVTVF, the amyloid nucleation score result was “inactive”.

As to DLPKVHGKFFYSLPMVVNTN, the amyloid nucleation score is -0.162 ± 0.98.

With LQCLVSAKCNFCMYR, the amyloid nucleation score is 0.869 ± 0.19.

As to SLIIDKGPDVYCSWTVERIT, the amyloid nucleation score entry is “inactive”.

As for SVGHSFERKWSGCHWEISNL, the amyloid nucleation score entry is “inactive”.

For the substance GNGVTPWPAEENSSRSPMPY, the amyloid nucleation score entry was “inactive”.

As to LKHVWLSDRALGSSLTCMAG, the amyloid nucleation score result is “inactive”.

LLWLLIWEFHT: the amyloid nucleation score result is “inactive”.

For SLVIAQARANRNILLLTVAR, the amyloid nucleation score entry is “inactive”.

In the case of TSPGFYGWMSNSTSSNDIVA, the amyloid nucleation score result was “inactive”.

Regarding TFLALHNNQQLV, the amyloid nucleation score entry was “inactive”.

Substance GSICFNPTVWLVSRYRCS yielded an amyloid nucleation score of 1.19 ± 0.12.

For RQGYVADNSTGESDIGDGLG, the amyloid nucleation score result was “inactive”.

As for VERKNVLFRYHAVGFVLGDV, the amyloid nucleation score entry is “inactive”.

Turning to RTPPLRTQLESKSIFKEMAR, the amyloid nucleation score entry was “inactive”.

On to IVNFACCVWSLYSSREFNML, for which the amyloid nucleation score is 3.22 ± 0.07.

Consider LYTDVEYRVWCVTFLVRPSK, for which the amyloid nucleation score result was “inactive”.

For the substance DGYKMCRDGIGWIGT, the amyloid nucleation score result was “inactive”.

For the substance RYNPFRIQELSMLFVLERTL, the amyloid nucleation score was 0.014 ± 0.71.

KSNYEGTFGRHVLGPLKNKW: the amyloid nucleation score was -0.463 ± 1.8.

Consider ERFLIPSDLNYKYA, for which the amyloid nucleation score entry was “inactive”.

With DHRRLPSCPIFDWFTLNRGP, the amyloid nucleation score entry is “inactive”.

For the substance RFCAFERG, the amyloid nucleation score entry is “inactive”.

Regarding QDTLVPYMFKQITVYVYGLA, the amyloid nucleation score entry was “inactive”.

IFMLWPAD: the amyloid nucleation score result is “inactive”.

Take IYSVVGCWKPSSVSDMAGLL: the amyloid nucleation score result is “inactive”.

With WKEVGHGRSASPSALK, the amyloid nucleation score entry was “inactive”.

Take SLYVHRSIANGF: the amyloid nucleation score result is “inactive”.

TLSFCWWRFMLVCRGVGGGR: the amyloid nucleation score result is “inactive”.

Regarding KSASKVGLMKAYRNASRTVI, the amyloid nucleation score entry is “inactive”.

SSYLDTNWRMP: the amyloid nucleation score entry was “inactive”.

As for DRKNCRRSHVWVMRMGNWYC, the amyloid nucleation score entry was “inactive”.

Take RLYFYDEKCIGCHGSNSLTQ: the amyloid nucleation score entry was “inactive”.

For YLTCVVKRTVH, the amyloid nucleation score result is “inactive”.

With ERFRGMDRHVGVVWYDFV, the amyloid nucleation score result is “inactive”.

NEIMVTLHNV: the amyloid nucleation score result is “inactive”.

In the case of SMWYLVLN, the amyloid nucleation score entry was “inactive”.

Consider PFGWSVLGTGASGAEIQLVE, for which the amyloid nucleation score result is “inactive”.

Regarding LSELSRSARVLMFQLFMSRC, the amyloid nucleation score stood at 1.87 ± 0.081.

On to VLMGRCLPRWLLYEELLVYV, for which the amyloid nucleation score entry is “inactive”.

As for RRMLIGFHVFSYYWDNEYTR, the amyloid nucleation score is 0.611 ± 0.14.

On to ILLRQKHVHNY, for which the amyloid nucleation score entry was “inactive”.

Consider SSDDFSWTIRMRRSEFTSHG, for which the amyloid nucleation score result is “inactive”.

For ISTSLMDRRTKMLRQM, the amyloid nucleation score entry is “inactive”.

In the case of MNFPR, the amyloid nucleation score entry is “inactive”.

As for SVSNPRNRT, the amyloid nucleation score result is “inactive”.

As to HAYSWVLFAVMSLSRLPTWN, the amyloid nucleation score result is “inactive”.

As to GGKAISNFEFLLILGPY, the amyloid nucleation score result is “inactive”.

Regarding NDKVGRAL, the amyloid nucleation score entry is “inactive”.

With YVVREHYNGCATPN, the amyloid nucleation score result was “inactive”.

In turn, FISLVPLLSLYRPWVKK yielded an amyloid nucleation score of 0.836 ± 0.18.

RNSSNGSVHKQVFAVELKVP: the amyloid nucleation score entry is “inactive”.

Regarding LGMVYICYYISVIVDPYSYS, the amyloid nucleation score turned out to be 0.246 ± 0.25.

For SFRYAYWLSNNCH, the amyloid nucleation score is 0.378 ± 0.4.

SEGDLKYVW: the amyloid nucleation score result was “inactive”.

In the case of SLILERFNRHCVWGVSVKKH, the amyloid nucleation score result was “inactive”.

In the case of CWHCVIDAGFLSQYVRVFYS, the amyloid nucleation score entry is “inactive”.

As for NLDQHCRCVIGFAITYYVGY, the amyloid nucleation score entry is “inactive”.

Turning to SGLKTFLEMSLHLCVLLARA, the amyloid nucleation score result was “inactive”.

As for CLNHQASMVSTAPVEFFRFL, the amyloid nucleation score entry is “inactive”.

HMIRAVFLSCMSASILVTIK came in with an amyloid nucleation score of -0.366 ± 0.53.

Take RRVSHLFLRTCCPSWTYYHL: the amyloid nucleation score entry is “inactive”.

On to TDTTSIMNWEDRPISSLKVD, for which the amyloid nucleation score result is “inactive”.

Regarding RIKSSTYSMSLVGAQ, the amyloid nucleation score entry is “inactive”.

Regarding RNIQWRFIP, the amyloid nucleation score result was “inactive”.

For the substance WCQCRKLFWVYAHGEHFSSC, the amyloid nucleation score was found to be 1.09 ± 0.12.

With VLCPFRLFMSNTYLTFAMSC, the amyloid nucleation score entry is “inactive”.

For WKRKRRLRELGITKVILRVL, the amyloid nucleation score result is “inactive”.

VREMGLTHFTASLYRGEMPG: the amyloid nucleation score entry was “inactive”.

Regarding GPLHMANYGYVLNIYLSCRN, the amyloid nucleation score was 2.15 ± 0.06.

Consider IFHRD, for which the amyloid nucleation score result was “inactive”.

TYMCQVFNILDSQKYCYMRR: the amyloid nucleation score entry is “inactive”.

As to INQRVYESWLAFV, the amyloid nucleation score entry was “inactive”.

Take YKQHYRRSRHCIKHYVGGSE: the amyloid nucleation score entry was “inactive”.

The values are drawn from the supplement of paper PMC12042874.
